To fix the notation:
B1: 1035419 (antibody, V domains shown)
VH: QVQLKQSGAELVRPGASVKLSCKTSGYIFTSYWIHWIKQRSGQGLEWIARIYPGTGSTYNNEKFKGKATLTADKSSSTAYMQLSSLKSEDSAVYFCARGEDNLYFYAMDYWGQGTSVTVSS
VL: NIVLTQSPASLAVSLGQRATISCRASESVDSYGASFMHWCQQKPGQPPKLLIYLASNLESGVPARFSGSGSRTDFTLTIDPVEADDAATYYCQQNYEDPWTFGGGTKLEIK
B2: 1035240 (antibody, V domains shown)
VH: QVQLQQSGAELARPGASVKMSCKASGYTFTTYTMHWVKQRPGQGLEWIGYINPSSGYTNYNQKFKDKATLTADTSSSTAYMQLSSLTSEDSAVYYCARRNPLYAMDYWGQGTSVTVSS
VL: DIKMTQSPSSMYASLGERVTITCKASQDINSYLNWFQQKPGKSPKTLIYRANRLVDGVPSRFSGSGSGQDYSLTISSLEYEDMGIYYCLQYDEFPYTFGGGTKLEIK
B3: 1035224 (antibody, V domains shown)
VH: EVQLQQSGAEFVRPGALVKLSCKASGFNIKDDYMHWVKQRPEQGLEWIGWIDPENGNSIYDPKFQGKASITADTSSNTAYLQLSSLTSEDTAVYYCARGEYFGSGSFAYWGQGTLVTVSA
VL: QIVLTQSPAIMSASPGEKVTISCSASSSVSYMYWYQQKPGSSPKPWIYRTSNLASGVPARFSGSGSGTSYSLTISSMEAEDAATYYCQQYHSYPYMYTFGGGTKLEIK
B4: 1035433 (antibody, V domains shown)
VH: QVQLQQSGPQLVRPGASVKISCKASGYSFTIYWMHWVQQRPGQGLEWIGMIDPSDSETRLNQKFKDKATLTVDKSSSTAYMQLSSPTSEDSAVYYCARRGDYNFDYWGQGTTLTVSS
VL: DIVMTQAAPSVPATPGESVSISCRSSKSLLHSNGNTYLYWFLQRPGQSPQLLIFRMSNLASGVPDRFSGSGSGTAFTLRISRVEAEDVGVYYCMQHLEYPYTFGGGTKLEIK
B5: 1035716 (antibody, V domains shown)
VH: EVLLQQSGPELVKPGASVKIPCKASGYTFTDYNMDWVKQSHGKSLEWIGDINPNNGGTIYNQKFKGKATLTVDKSSSTAYMELRSLTSEDTAVYYCAREGYGNYFDYWGQGTTLTVSS
VL: DILLTQSPAILSVSPGERVSFSCRASQSIGTSIHWYQQRTNGSPRLLIKYASESISGIPSRFSGSGSGTDYTLSINSVESEDIADYYCQQSYSWPTTFGAGTKLELK
B6: 1035414 (antibody, V domains shown)
VH: B1 VH with I37V, S57N, N60Y, S77T, F105Y
VL: B1 VL with A34T, C40Y, R65S, Y96N
B7: 1035423 (antibody, V domains shown)
VH: EVKLEESGGGLVQPGGSMKLSCTASGFTFSDAWMDWVRQSPEKGLEWVAEIRNKANNHATYYAESVKGRFTISRDDSKSSVYLQMNSLRAEDTGIYYCILFITYAMDYWGQGTSVTVSS
VL: DIVLTQSQKFMSTSVGDRVSITCKASQNVRTAVAWYQQKPGQSPKALIYLASNRHTGVPDRFTGSGSGTDFTLTISNVQSEDLADYFCLQHWNYPLTFGSGTKLELK

Positions count from the first letter of the chain named.

The target of the first test is T1, SARS-CoV spike RBD (R306-F527), C-terminal 6-His (SARS-CoV, UniProt P59594 306-527). Put plainly: lateral flow NC50, RBD-AuNP vs immobilised ACE2.
The molecule B1 gave an IC50 of 2.86 µg/mL.

The next test has as its target T2, recombinant monomeric SARS-CoV-2 S1 protein, his-tagged (SARS-CoV-2, UniProt P0DTC2 16-681).
T2 construct: domain: S1
Put plainly: flow cytometry, blocking of binding to hACE-2 cells.
B2: the percent blocking turned out to be 56.5%.

As for B3, the percent blocking is 86.6%.

On to B4, for which the percent blocking is 9.3%.

In the case of B5, the percent blocking was found to be 93.8%.

For the molecule B6, the percent blocking was 25.9%.

Consider B1, for which the percent blocking amounted to 70.1%.

Another test has as its target T3, recombinant his-tagged homotrimeric SARS-CoV-2 spike protein (SARS-CoV-2, UniProt P0DTC2 16-1211). Described as above.
With B7, the percent blocking was determined as 91.6%.

Turning to B2, the percent blocking is 96.1%.

Turning to B3, the percent blocking stood at 96.6%.

B4: the percent blocking was found to be 82.5%.

Regarding B5, the percent blocking turned out to be 96.5%.

In the case of B6, the percent blocking is 51.4%.

Consider B1, for which the percent blocking turned out to be 89%.

A further test has as its target T4, recombinant monomeric SARS-CoV-1 S1 protein (SARS-CoV-1, UniProt P59594 14-667). The test is described as above.
For B7, the percent blocking came out at 0%.

In the case of B2, the percent blocking is 0%.

With B3, the percent blocking was 0%.

Take B4: the percent blocking worked out at 0%.

Take B5: the percent blocking is 89.5%.

On to B6, for which the percent blocking came to 12%.

As to B1, the percent blocking stood at 88.5%.

The target of the next test is T1, SARS-CoV spike RBD (R306-F527), …. The description is as above.
On to B7, for which the percent blocking was 0%.

B2 showed a percent blocking of 0%.

Molecule B3 returned a percent blocking of 0%.

Regarding B4, the percent blocking was 0%.

B5 displayed a percent blocking of 68.7%.

As to B6, the percent blocking came out at 0.4%.

B1 gave a percent blocking of 44.1%.

The target of a further test is T2, recombinant monomeric SARS-CoV-2 S1 …. The description is as above. This is another data set of the same source.
For the molecule B7, the percent blocking was found to be 19.7%.

Turning to B2, the percent blocking stood at 56.5%.

In the case of B3, the percent blocking worked out at 86.6%.

On to B4, for which the percent blocking came to 9.3%.

As to B5, the percent blocking turned out to be 93.8%.

As to B6, the percent blocking stood at 25.9%.

Turning to B1, the percent blocking was 70.1%.

The next test concerns the target T3, recombinant his-tagged homotrimeric …. Described as above. The source holds these as a separate data set.
As to B7, the percent blocking stood at 91.6%.

Turning to B2, the percent blocking stood at 96.1%.

With B3, the percent blocking was found to be 96.6%.

Regarding B4, the percent blocking is 82.5%.

As for B5, the percent blocking stood at 96.5%.

B6: the percent blocking was determined as 51.4%.

With B1, the percent blocking was 89%.

In the next test the target is T4, recombinant monomeric SARS-CoV-1 S1 …. The description is as above. This is another data set of the same source.
With B7, the percent blocking is 0%.

B2: the percent blocking came to 0%.

In the case of B3, the percent blocking was determined as 0%.

For B4, the percent blocking came out at 0%.

Regarding B5, the percent blocking turned out to be 89.5%.

For B6, the percent blocking was found to be 12%.

B1: the percent blocking came out at 88.5%.

Another test deals with T1, SARS-CoV spike RBD (R306-F527), …. Described as above. This is another data set of the same source.
B7: the percent blocking was 0%.

Turning to B2, the percent blocking is 0%.

Molecule B3 displayed a percent blocking of 0%.

Take B4: the percent blocking turned out to be 0%.

In the case of B5, the percent blocking was found to be 68.7%.

On to B6, for which the percent blocking stood at 0.4%.

Consider B1, for which the percent blocking worked out at 44.1%.

A further test shares this target. In words: dipstick, adsorbed RBD spots, Ab 10 µg/mL, GAM-AuNP.
Turning to B3, the binding result was “no binding (tested: 10 µg/mL)”.

Another test shares this target. Described as above. The source holds these as a separate data set.
As to B2, the binding result is “no binding (tested: 10 µg/mL)”.

The next test concerns the target T4, recombinant monomeric SARS-CoV-1 S1 …. Put plainly: antigen-down ELISA, coated SARS-CoV-1 S1 titrated, Ab 1 µg/mL.
As for B7, the binding result is reported as “no binding (tested: 400 ng coated (axis))”.

Another test shares this target. The description is as above. The source holds these as a separate data set.
Consider B4, for which the binding result is listed as “no binding (tested: 400 ng coated (axis))”.

For the next test the target is unchanged. Described as above. This is another data set of the same source.
In the case of B3, the binding result is listed as “no binding (tested: 400 ng coated (axis))”.

The next test has the same target. The test is described as above. The source holds these as a separate data set.
For B2, the binding result was “no binding (tested: 400 ng coated (axis))”.

For another test, the target named is T5, BSA (bovine, UniProt P02769).
T5 construct: also called bovine serum albumin
T5 sequence (P02769 25-607 limits assumed): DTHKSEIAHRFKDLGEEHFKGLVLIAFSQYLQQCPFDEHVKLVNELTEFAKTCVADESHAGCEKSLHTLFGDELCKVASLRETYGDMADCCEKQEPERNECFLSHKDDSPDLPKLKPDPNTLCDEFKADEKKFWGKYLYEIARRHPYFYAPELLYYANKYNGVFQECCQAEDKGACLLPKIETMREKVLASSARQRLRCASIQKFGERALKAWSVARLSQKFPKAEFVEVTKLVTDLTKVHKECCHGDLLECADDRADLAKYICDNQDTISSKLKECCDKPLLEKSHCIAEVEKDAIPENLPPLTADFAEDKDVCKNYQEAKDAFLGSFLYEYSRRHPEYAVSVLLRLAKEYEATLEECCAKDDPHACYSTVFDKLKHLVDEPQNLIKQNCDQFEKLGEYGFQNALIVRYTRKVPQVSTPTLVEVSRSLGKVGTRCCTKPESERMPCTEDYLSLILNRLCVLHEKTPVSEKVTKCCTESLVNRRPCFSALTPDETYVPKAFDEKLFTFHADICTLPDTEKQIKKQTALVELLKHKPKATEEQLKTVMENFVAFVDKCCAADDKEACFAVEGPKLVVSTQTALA
In words: dipstick, adsorbed protein spots, Ab 10 µg/mL, GAM-AuNP.
For the molecule B2, the binding result is reported as “no binding (tested: 10 µg/mL)”.

Another test deals with T5, BSA. In words: dipstick, adsorbed protein spots, Ab 10 µg/mL (reference).
B1: the binding result is listed as “no binding (tested: 10 µg/mL)”.

The target of the next test is T1, SARS-CoV spike RBD (R306-F527), …. Put plainly: antigen-down ELISA, coated SARS-CoV-1 S1 RBD titrated, Ab 1 µg/mL.
Consider B7, for which the binding result is listed as “no binding (tested: 400 ng coated (axis))”.

Another test shares this target. The description is as above. This is another data set of the same source.
For B4, the binding result is given as “no binding (tested: 400 ng coated (axis))”.

These data come from US20230408517A1 (BIO TECHNE, published 2023).
